The values below come from patent US20240116985A1 (published 2024).

To fix the notation:
T1: full-length beta-Catenin (Uniprot ID P35222) (Homo sapiens (Human), UniProt P35222 1-781)
T1 construct: The assay protocol says 'full-length beta-Catenin (Uniprot ID P35222)'; also called bCat; B-Catenin
T1 sequence: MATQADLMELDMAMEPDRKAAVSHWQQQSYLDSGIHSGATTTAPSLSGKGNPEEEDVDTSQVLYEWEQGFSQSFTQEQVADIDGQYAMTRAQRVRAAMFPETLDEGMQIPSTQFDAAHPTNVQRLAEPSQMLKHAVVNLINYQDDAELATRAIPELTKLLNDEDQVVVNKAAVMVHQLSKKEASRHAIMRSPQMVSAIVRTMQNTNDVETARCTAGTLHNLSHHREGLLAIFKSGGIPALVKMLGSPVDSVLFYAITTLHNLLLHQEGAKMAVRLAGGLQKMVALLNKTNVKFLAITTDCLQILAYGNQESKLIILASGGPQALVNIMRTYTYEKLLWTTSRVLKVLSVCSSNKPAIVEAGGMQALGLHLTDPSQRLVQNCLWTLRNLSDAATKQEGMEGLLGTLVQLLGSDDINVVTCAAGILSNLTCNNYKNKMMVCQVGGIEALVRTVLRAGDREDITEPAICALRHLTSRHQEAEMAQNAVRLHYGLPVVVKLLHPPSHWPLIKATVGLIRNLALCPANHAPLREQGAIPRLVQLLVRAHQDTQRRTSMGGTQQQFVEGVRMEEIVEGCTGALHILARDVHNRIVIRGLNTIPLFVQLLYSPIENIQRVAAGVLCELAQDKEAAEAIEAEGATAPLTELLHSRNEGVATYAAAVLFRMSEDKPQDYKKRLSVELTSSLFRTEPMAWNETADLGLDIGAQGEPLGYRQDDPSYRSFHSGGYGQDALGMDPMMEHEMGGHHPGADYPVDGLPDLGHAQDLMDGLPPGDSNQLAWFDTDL

T2: full-length beta-Catenin (Uniprot ID P35222) (Homo sapiens (Human), UniProt P35222 2-781)
T2 construct: Also used here for the endogenous beta-catenin of the DLD1 TCF reporter cells; also called bCat; B-Catenin
T2 sequence: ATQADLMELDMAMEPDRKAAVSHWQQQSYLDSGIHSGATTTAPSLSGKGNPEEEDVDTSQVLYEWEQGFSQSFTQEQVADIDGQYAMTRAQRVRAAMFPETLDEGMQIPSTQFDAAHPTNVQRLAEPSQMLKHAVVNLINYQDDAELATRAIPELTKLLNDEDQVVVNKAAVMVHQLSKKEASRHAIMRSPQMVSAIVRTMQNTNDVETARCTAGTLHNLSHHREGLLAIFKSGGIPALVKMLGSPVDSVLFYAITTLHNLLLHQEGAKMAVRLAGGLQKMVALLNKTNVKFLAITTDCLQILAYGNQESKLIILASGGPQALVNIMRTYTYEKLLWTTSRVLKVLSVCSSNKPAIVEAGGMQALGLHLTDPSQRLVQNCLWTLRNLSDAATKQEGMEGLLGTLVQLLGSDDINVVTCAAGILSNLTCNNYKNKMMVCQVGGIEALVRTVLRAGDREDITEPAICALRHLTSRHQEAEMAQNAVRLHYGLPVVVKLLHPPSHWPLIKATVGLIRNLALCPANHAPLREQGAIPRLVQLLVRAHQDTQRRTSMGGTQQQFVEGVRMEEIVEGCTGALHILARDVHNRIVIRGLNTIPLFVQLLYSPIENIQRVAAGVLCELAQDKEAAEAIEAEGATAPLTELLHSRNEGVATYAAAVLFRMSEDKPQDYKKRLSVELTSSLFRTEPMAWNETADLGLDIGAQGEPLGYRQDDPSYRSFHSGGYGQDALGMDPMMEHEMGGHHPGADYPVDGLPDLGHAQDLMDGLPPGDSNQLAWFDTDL

B1: I-147 (peptide)
peptide: Ac-[Aib]DI[RdN]DEAAFQ[S7]FW-NH2
modifications: staple 4-11
notes: also called Ac-Aib-Asp-Ile-RdN-Asp-Glu-Ala-Ala-Phe-Gln-S7-Phe-Trp-NH2
B2: I-176 (peptide)
peptide: Ac-[αAllylPro]DI[B5(5)]DEAAFV[S8]FWH-NH2
modifications: staple 1-4, 4-11
notes: also called Ac-PL3-Asp-Ile-B5-Asp-Glu-Ala-Ala-Phe-Val-S8-Phe-Trp-His-NH2
B3: I-174 (peptide)
peptide: Ac-[αAllylPro]DI[B5(5)]DDAAFQ[S8]FWH-NH2
modifications: staple 1-4, 4-11
notes: also called Ac-PL3-Asp-Ile-B5-Asp-Asp-Ala-Ala-Phe-Gln-S8-Phe-Trp-His-NH2
B4: I-155 (peptide)
peptide: ADIXDEAAFAXFWA
modifications: not fully specified; N-terminal acetyl (Ac); RdN at 4 and S7 at 11 (staple RdN-S7 by olefin metathesis); C-terminal amide (NH2)
notes: also called Ac-Ala-Asp-Ile-RdN-Asp-Glu-Ala-Ala-Phe-Ala-S7-Phe-Trp-Ala-NH2
B5: I-148 (peptide)
peptide: Ac-ADI[RdN″]DEAAFQ[S7]FW-NH2
modifications: staple 4-11
notes: also called Ac-Ala-Asp-Ile-RdN-Asp-Glu-Ala-Ala-Phe-Gln-S7-Phe-Trp-NH2
B6: I-178 (peptide)
peptide: Ac-[αAllylPro]DA[B5(19)]DEAAFQ[S8]FWH-NH2
modifications: staple 1-4, 4-11
notes: also called Ac-PL3-Asp-Ala-B5-Asp-Glu-Ala-Ala-Phe-Gln-S8-Phe-Trp-His-NH2
B7: I-172 (peptide)
peptide: Ac-[αAllylPro]DA[B5(4)]D[EtGA]AAFV[S8]FWQ-NH2
modifications: staple 1-4, 4-11; not fully specified
notes: also called Ac-PL3-Asp-Ala-B5-Asp-EtGA-Ala-Ala-Phe-Val-S8-Phe-Trp-Gln-NH2
B8: I-166 (peptide)
peptide: Ac-[αAllylPro]DA[B5(16)]DEAAFV[S8]F[Trp(7-F)]Q-NH2
modifications: staple 1-4, 4-11
notes: also called Ac-PL3-Asp-Ala-B5-Asp-Glu-Ala-Ala-Phe-Val-S8-Phe-7FW-Gln-NH2
B9: I-144 (peptide)
peptide: Ac-[αAllylPro]DA[B5(4)]DEAAFV[S8]F[Bta]Q-NH2
modifications: staple 1-4, 4-11
notes: also called Ac-PL3-Asp-Ala-B5-Asp-Glu-Ala-Ala-Phe-Val-S8-Phe-BztA-Gln-NH2
B10: I-180 (peptide)
peptide: XDIXDEAAFQXFWQ
modifications: not fully specified; N-terminal acetyl (Ac); PL3 at 1, B5 at 4, S8 at 11 (staples PL3-B5 and B5-S8 by olefin metathesis); C-terminal amide (NH2)
notes: also called Ac-PL3-Asp-Ile-B5-Asp-Glu-Ala-Ala-Phe-Gln-S8-Phe-Trp-Gln-NH2
B11: I-173 (peptide)
peptide: Ac-[αAllylPro]DA[B5]D[EtGA]AAFV[S8]FWQ-NH2
modifications: staple 1-4, 4-11; not fully specified
notes: as for B7
B12: I-154 (peptide)
peptide: ADIXDEAAFAXFWA
modifications: not fully specified; N-terminal acetyl (Ac); RdN at 4 and S7 at 11 (staple RdN-S7 by olefin metathesis); C-terminal amide (NH2)
notes: as for B4
B13: I-152 (peptide)
peptide: Ac-ADI[RdN″]DEAAFA[S7]FWH-NH2
modifications: staple 4-11
notes: also called Ac-Ala-Asp-Ile-RdN-Asp-Glu-Ala-Ala-Phe-Ala-S7-Phe-Trp-His-NH2
B14: I-153 (peptide)
peptide: Ac-ADI[RdN(3)]DEAAFQ[S7]FWA-NH2
modifications: staple 4-11
notes: also called Ac-Ala-Asp-Ile-RdN-Asp-Glu-Ala-Ala-Phe-Gln-S7-Phe-Trp-Ala-NH2

Starred links: 1 amine or outer side, 2 acyl side, 3 side chain; linkers in the order of their positions; H or OH if unused. Positions of bridges follow the written chain, without caps; N, C: chain ends. Non-standard residues stand in square brackets, D forms with d. Primed or numbered codes have the meaning given here. RdN(3) = (R)-4-(((allyloxy)carbonyl)(methyl)amino)-2-amino-2-methylbutanoic acid, stapling residue, C=CCOC(=O)N(C)CC[C@@](C)(N[*:1])C(=O)[*:2]; RdN″ = (R)-4-(((allyloxy)carbonyl)(methyl)amino)-2-amino-2-methylbutanoic acid (stapling residue), C=CCOC(=O)N(C)CC[C@@](C)(N[*:1])C(=O)[*:2]; B5(16) = 2-amino-2-(pent-4-en-1-yl)hept-6-enoic acid = 2,2-bis(4-pentenyl)glycine (stitching residue), C=CCCCC(CCCC=C)(N[*:1])C(=O)[*:2]; B5(4) = 2,2-bis(4-pentenyl)glycine = 2-amino-2-(pent-4-en-1-yl)hept-6-enoic acid (stitching residue), C=CCCCC(CCCC=C)(N[*:1])C(=O)[*:2]; B5(5) = 2,2-bis(4-pentenyl)glycine, 2-amino-2-(pent-4-en-1-yl)hept-6-enoic acid (stitching residue), C=CCCCC(CCCC=C)(N[*:1])C(=O)[*:2]; RdN = (R)-4-(((allyloxy)carbonyl)(methyl)amino)-2-amino-2-methylbutanoic acid, C=CCOC(=O)N(C)CC[C@@](C)(N[*:1])C(=O)[*:2]; B5(19) = 2-amino-2-(pent-4-en-1-yl)hept-6-enoic acid (bis(4-pentenyl)glycine), C=CCCCC(CCCC=C)(N[*:1])C(=O)[*:2]; EtGA = (S)-2-amino-3-((carboxymethyl)(ethyl)amino)propanoic acid, CCN(CC(=O)[*:3])C[C@H](N[*:1])C(=O)[*:2]; B5 = 2-amino-2-(pent-4-en-1-yl)hept-6-enoic acid, C=CCCCC(CCCC=C)(N[*:1])C(=O)[*:2]; Trp(7-F) = N[C@@H](Cc1c[nH]c2c(F)cccc12)C(=O)O; S7 = C[C@@](CCCCCC=[*:3])(N[*:1])C(=O)[*:2]; Bta = N[C@@H](Cc1csc2ccccc12)C(=O)O; αAllylPro = C=CC[C@@]1(C(=O)O)CCCN1; S8 = C=CCCCCCC[C@](C)(N)C(=O)O; NMeS = CN[C@@H](CO)C(=O)O; Aib = CC(C)(N)C(=O)O

For one assay, the target named is T1, full-length beta-Catenin (Uniprot ID …). Briefly: fluorescence polarization competition; full-length beta-catenin, competitor 5FAM-TCF4(10-53) probe. In a few lines:
(§1)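 Data fitted to 1:1 binding model with hill slope from duplicate reads taken after 60 minutes at 20° C. in the dark.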
In general terms: Fluorescence polarisation rises when a labelled molecule tumbles more slowly, as on binding a larger partner.
On to B1, for which the IC50 came to 1.64 µM.
Same read-out and setting: under B2 stands 1.99 µM; under B3, 1.76 µM; under B4, 5 µM.
On the same count and under the same terms, under B5 stands 2.77 µM.
Take B6: the IC50 was found to be 1.63 µM.
B7: the IC50 stood at 5 µM.
Still for that read-out and setting: to B8 belongs 2.16 µM; to B9, 0.146 µM; to B10, 0.056 µM.
On the same count and under the same terms, to B11 belongs 3.12 µM.
Still for that read-out and setting: to B12 belongs 5 µM; to B13, 5 µM; to B14, 2.14 µM.

For the next assay, the target named is T2, full-length beta-Catenin (Uniprot ID …). The assay is described as above. The essentials: as §1
For the molecule Ac-[αAllylPro]DL[B5(4)]DEAAFN[S8]F[Bta][NMeS]-NH2 (staple 1-4, 4-11; also: earlier-eluting HPLC peak (staple isomer), Stapled peptide composition) [I-759], the 50% effective concentration (EC50) was 1.53 µM. This counts as single-digit micromolar.

For orientation: IC50 means the point on the concentration scale where inhibition reaches its midpoint. The EC50 is the concentration that produces a half-maximal response. Low readings indicate an effect from little substance, high ones a need for much substance.
